Measured values from patent US20200249231.

Assays:
[1] = biological target: T1, RFYSK (5-mer on peptide array)
T1 chain: RFYSK

[2] = biological target: T2, QRQRQ (5-mer on peptide array)
T2 chain: QRQRQ

[3] = biological target: T3, EWIAQ (5-mer on peptide array)
T3 chain: EWIAQ

[4] = biological target: T4, APRYRQRAA (9-mer on peptide array)
T4 chain: APRYRQRAA

[5] = biological target: T5, RYTQR (5-mer on peptide array)
T5 chain: RYTQR

[6] = biological target: T6, DWVAQ (5-mer on peptide array)
T6 chain: DWVAQ

[7] = biological target: T7, AYRQR (5-mer on peptide array)
T7 chain: AYRQR

[8] = biological target: T8, KYRYK (5-mer on peptide array)
T8 chain: KYRYK

[9] = biological target: T9, DYALQ (5-mer on peptide array)
T9 chain: DYALQ

Z-[GGGFRQRQGGGG] = biological target: T10, Z-[GGGFRQRQGGGG]
T10 chain: GGGFRQRQGGGG

[10] = biological target: T11, EYALQ (5-mer on peptide array)
T11 chain: EYALQ

[11] = biological target: T12, DYFLQ (5-mer on peptide array)
T12 chain: DYFLQ

Z-[GGGRYGKSGGGG] = biological target: T13, Z-[GGGRYGKSGGGG]
T13 chain: GGGRYGKSGGGG

Z-[GGGRYRSKGGGG] = biological target: T14, Z-[GGGRYRSKGGGG]
T14 chain: GGGRYRSKGGGG

[12] = biological target: T15, DYWLQ (5-mer on peptide array)
T15 chain: DYWLQ

[13] = biological target: T16, YRQRA (5-mer on peptide array)
T16 chain: YRQRA

[14] = biological target: T17, PYKYK (5-mer on peptide array)
T17 chain: PYKYK

[15] = biological target: T18, WYALQ (5-mer on peptide array)
T18 chain: WYALQ

[16] = biological target: T19, EWVAQ (5-mer on peptide array)
T19 chain: EWVAQ

Z-[GGGMLAQGSGGG] = biological target: T20, Z-[GGGMLAQGSGGG]
T20 chain: GGGMLAQGSGGG

[17] = biological target: T21, ARSKL (5-mer on peptide array)
T21 chain: ARSKL

[18] = biological target: T22, YKSWK (5-mer on peptide array)
T22 chain: YKSWK

[19] = biological target: T23, VRYRQ (5-mer on peptide array)
T23 chain: VRYRQ

[20] = biological target: T24, RYRSK (5-mer on peptide array)
T24 chain: RYRSK

Z-[GGGARSKLGGGG] = biological target: T25, Z-[GGGARSKLGGGG]
T25 chain: GGGARSKLGGGG

[21] = biological target: T26, QRQTR (5-mer on peptide array)
T26 chain: QRQTR

[22] = biological target: T27, YQRQR (5-mer on peptide array)
T27 chain: YQRQR

[23] = biological target: T28, DYVAQ (5-mer on peptide array)
T28 chain: DYVAQ

[24] = biological target: T29, EYVAQ (5-mer on peptide array)
T29 chain: EYVAQ

Z-[GGGRYSQRGGGG] = biological target: T30, Z-[GGGRYSQRGGGG]
T30 chain: GGGRYSQRGGGG

[25] = biological target: T31, YRQSR (5-mer on peptide array)
T31 chain: YRQSR

[26] = biological target: T32, EYFLQ (5-mer on peptide array)
T32 chain: EYFLQ

[27] = biological target: T33, LRYRQ (5-mer on peptide array)
T33 chain: LRYRQ

[28] = biological target: T34, YKYAK (5-mer on peptide array)
T34 chain: YKYAK

[29] = biological target: T35, YKYNK (5-mer on peptide array)
T35 chain: YKYNK

[30] = biological target: T36, FYESK (5-mer on peptide array)
T36 chain: FYESK

[31] = biological target: T37, RFSQR (5-mer on peptide array)
T37 chain: RFSQR

[32] = biological target: T38, QYRQR (5-mer on peptide array)
T38 chain: QYRQR

[33] = biological target: T39, YKYKY (5-mer on peptide array)
T39 chain: YKYKY

Z-[GGGRYRQRGGGG] = biological target: T40, Z-[GGGRYRQRGGGG]
T40 chain: GGGRYRQRGGGG

Z-[GGGRYSKYGGGG] = biological target: T41, Z-[GGGRYSKYGGGG]
T41 chain: GGGRYSKYGGGG

[34] = biological target: T42, FRQRG (5-mer on peptide array)
T42 chain: FRQRG

[35] = biological target: T43, RQRQR (5-mer on peptide array)
T43 chain: RQRQR

Z-[GGGFRQRGGGGG] = biological target: T44, Z-[GGGFRQRGGGGG]
T44 chain: GGGFRQRGGGGG

Z-[GGGYKGRGGGGG] = biological target: T45, Z-[GGGYKGRGGGGG]
T45 chain: GGGYKGRGGGGG

[36] = biological target: T46, Thermus thermophilus SlyD FKBP domain with S. mobaraensis MTG Q-tag DYALQ instead of RYRQR
T46 chain: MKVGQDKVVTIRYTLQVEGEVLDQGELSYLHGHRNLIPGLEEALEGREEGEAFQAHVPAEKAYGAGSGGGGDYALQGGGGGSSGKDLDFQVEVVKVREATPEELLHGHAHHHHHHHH

[37] = biological target: T47, RYSKY (5-mer on peptide array)
T47 chain: RYSKY

[38] = biological target: T48, VRQRQ (5-mer on peptide array)
T48 chain: VRQRQ

Z-[GGGDYALQGGGG] = biological target: T49, Z-[GGGDYALQGGGG]
T49 chain: GGGDYALQGGGG

[39] = biological target: T50, AYRTK (5-mer on peptide array)
T50 chain: AYRTK

[40] = biological target: T51, RYESK (5-mer on peptide array)
T51 chain: RYESK

[41] = biological target: T52, EWALQ (5-mer on peptide array)
T52 chain: EWALQ

B1: Kutzneria albida microbial transglutaminase, activated enzyme (KalbTGt3) (protein)
chain: APLAPPLAEDRSYRTWRVEDYVEAWERYHGREMTEDERENLARGCIGVTVVNLNREDLSNPPLNLSFGSLRTAEAVQAALNKIVDTHPSPAQYEAAVAKDPILKRLKNVVKALPSWIDSAKLKASIFSKRFYSWQNPDWSEERAHTTYRPDRETDQVDMSTYRYRARPGYVNFDYGWFDQDTNTWWHANHEEPRMVVYQSTLRHYSRPLQDFDEQVFTVAFAKKDGGGSGHHHHHHHH
- 5-mer peptide array, incorporation of biotinylated glutamine donor Z-APRYRQRAAGGG-PEG-biotin [1]: the top 17 lysine-donor substrates identified on the 5-mer peptide array with KalbTG
- 5-mer peptide array, incorporation of biotinylated amine donor [2]: the top 22 glutamine-donor substrates identified on the 5-mer peptide array with KalbTG
- Array signal (log2) [2]: 8.77 log2
- 5-mer peptide array signal with KalbTG [3]: exhibited relatively lower signal on the KalbTG array
- peptide array, second round of maturation [4]: A second round of maturation on the peptide array yielded APRYRQRAA (SEQ ID NO:24) as the top performing 9-mer substrate
- 5-mer peptide array, incorporation of biotinylated amine donor [5]: the top 22 glutamine-donor substrates identified on the 5-mer peptide array with KalbTG
- 5-mer peptide array signal with KalbTG [6]: exhibited relatively lower signal on the KalbTG array
- 5-mer peptide array, incorporation of biotinylated amine donor [7]: the top 22 glutamine-donor substrates identified on the 5-mer peptide array with KalbTG
- 5-mer peptide array, incorporation of biotinylated glutamine donor Z-APRYRQRAAGGG-PEG-biotin [8]: the top 17 lysine-donor substrates identified on the 5-mer peptide array with KalbTG
- 5-mer peptide array signal with KalbTG [9]: exhibited relatively lower signal on the KalbTG array
- Array signal (log2) [9]: 7.22 log2
- Reaction rate in solution (pmol/s), GLDH-coupled assay (Z-[GGGFRQRQGGGG]): 3.07 pmol/s
- 5-mer peptide array signal with KalbTG [10]: exhibited relatively lower signal on the KalbTG array
- 5-mer peptide array signal with KalbTG [11]: exhibited relatively lower signal on the KalbTG array
- Reaction Rate in Solution (pmol s^-1), GLDH-coupled assay with 200 µM glutamine donor (Z-[GGGRYGKSGGGG]): 2.66 pmol/s
- Reaction Rate in Solution (pmol s^-1), GLDH-coupled assay with 200 µM glutamine donor (Z-[GGGRYRSKGGGG]): 3.26 pmol/s
- 5-mer peptide array signal with KalbTG [12]: exhibited relatively lower signal on the KalbTG array
- 5-mer peptide array, incorporation of biotinylated amine donor [13]: the top 22 glutamine-donor substrates identified on the 5-mer peptide array with KalbTG
- 5-mer peptide array, incorporation of biotinylated glutamine donor Z-APRYRQRAAGGG-PEG-biotin [14]: the top 17 lysine-donor substrates identified on the 5-mer peptide array with KalbTG
- 5-mer peptide array signal with KalbTG [15]: exhibited relatively lower signal on the KalbTG array
- 5-mer peptide array signal with KalbTG [16]: exhibited relatively lower signal on the KalbTG array
- GLDH-coupled activity assay (Z-[GGGMLAQGSGGG]): KalbTG exhibited no activity with preferred S. mobaraensis MTG substrates DYALQ (SEQ ID NO: 22) and MLAQG (SEQ ID NO: 13)
- Reaction rate in solution (pmol/s), GLDH-coupled assay (Z-[GGGMLAQGSGGG]): -0.11 pmol/s
- Array signal (log2) [17]: 12 log2
- 5-mer peptide array, incorporation of biotinylated glutamine donor Z-APRYRQRAAGGG-PEG-biotin [18]: the top 17 lysine-donor substrates identified on the 5-mer peptide array with KalbTG
- 5-mer peptide array, incorporation of biotinylated amine donor [19]: the top 22 glutamine-donor substrates identified on the 5-mer peptide array with KalbTG
- Array signal (log2) [20]: 12.4 log2
- Reaction Rate in Solution (pmol s^-1), GLDH-coupled assay with 200 µM glutamine donor (Z-[GGGARSKLGGGG]): 3.87 pmol/s
- 5-mer peptide array, incorporation of biotinylated amine donor [21]: the top 22 glutamine-donor substrates identified on the 5-mer peptide array with KalbTG
- 5-mer peptide array, incorporation of biotinylated amine donor [22]: the top 22 glutamine-donor substrates identified on the 5-mer peptide array with KalbTG
- 5-mer peptide array signal with KalbTG [23]: exhibited relatively lower signal on the KalbTG array
- 5-mer peptide array signal with KalbTG [24]: exhibited relatively lower signal on the KalbTG array
- Reaction rate in solution (pmol/s), GLDH-coupled assay (Z-[GGGRYSQRGGGG]): 3.22 pmol/s
- 5-mer peptide array, incorporation of biotinylated amine donor [25]: the top 22 glutamine-donor substrates identified on the 5-mer peptide array with KalbTG
- 5-mer peptide array signal with KalbTG [26]: exhibited relatively lower signal on the KalbTG array
- 5-mer peptide array, incorporation of biotinylated amine donor [27]: the top 22 glutamine-donor substrates identified on the 5-mer peptide array with KalbTG
- 5-mer peptide array, incorporation of biotinylated glutamine donor Z-APRYRQRAAGGG-PEG-biotin [28]: the top 17 lysine-donor substrates identified on the 5-mer peptide array with KalbTG
- 5-mer peptide array, incorporation of biotinylated glutamine donor Z-APRYRQRAAGGG-PEG-biotin [29]: the top 17 lysine-donor substrates identified on the 5-mer peptide array with KalbTG
- 5-mer peptide array, incorporation of biotinylated glutamine donor Z-APRYRQRAAGGG-PEG-biotin [30]: the top 17 lysine-donor substrates identified on the 5-mer peptide array with KalbTG
- 5-mer peptide array, incorporation of biotinylated amine donor [31]: the top 22 glutamine-donor substrates identified on the 5-mer peptide array with KalbTG
- 5-mer peptide array, incorporation of biotinylated amine donor [32]: the top 22 glutamine-donor substrates identified on the 5-mer peptide array with KalbTG
- Array signal (log2) [32]: 8.7 log2
- 5-mer peptide array, incorporation of biotinylated glutamine donor Z-APRYRQRAAGGG-PEG-biotin [33]: the top 17 lysine-donor substrates identified on the 5-mer peptide array with KalbTG
- Reaction rate in solution (pmol/s), GLDH-coupled assay (Z-[GGGRYRQRGGGG]): 3.6 pmol/s
- Reaction Rate in Solution (pmol s^-1), GLDH-coupled assay with 200 µM glutamine donor (Z-[GGGRYSKYGGGG]): 3.89 pmol/s
- 5-mer peptide array, incorporation of biotinylated amine donor [34]: the top 22 glutamine-donor substrates identified on the 5-mer peptide array with KalbTG
- Array signal (log2) [34]: 8.82 log2
- 5-mer peptide array, incorporation of biotinylated amine donor [35]: the top 22 glutamine-donor substrates identified on the 5-mer peptide array with KalbTG
- Array signal (log2) [35]: 8.84 log2
- Reaction rate in solution (pmol/s), GLDH-coupled assay (Z-[GGGFRQRGGGGG]): 2.11 pmol/s
- Reaction Rate in Solution (pmol s^-1), GLDH-coupled assay with 200 µM glutamine donor (Z-[GGGYKGRGGGGG]): 3.01 pmol/s
- labeling with KalbTG K-tag-Cy3 (SDS-PAGE, in-gel fluorescence) [36]: showed no incorporation of label when incubated with KalbTG
- 5-mer peptide array, incorporation of biotinylated glutamine donor Z-APRYRQRAAGGG-PEG-biotin [37]: the top 17 lysine-donor substrates identified on the 5-mer peptide array with KalbTG
- Array signal (log2) [37]: 12.8 log2
- 5-mer peptide array, incorporation of biotinylated amine donor [38]: the top 22 glutamine-donor substrates identified on the 5-mer peptide array with KalbTG
- GLDH-coupled activity assay (Z-[GGGDYALQGGGG]): KalbTG exhibited no activity with preferred S. mobaraensis MTG substrates DYALQ (SEQ ID NO: 22) and MLAQG (SEQ ID NO: 13)
- Reaction rate in solution (pmol/s), GLDH-coupled assay (Z-[GGGDYALQGGGG]): -0.05 pmol/s
- Array signal (log2) [39]: 12.6 log2
- 5-mer peptide array, incorporation of biotinylated glutamine donor Z-APRYRQRAAGGG-PEG-biotin [40]: the top 17 lysine-donor substrates identified on the 5-mer peptide array with KalbTG
- Array signal (log2) [40]: 12.7 log2
- 5-mer peptide array signal with KalbTG [41]: exhibited relatively lower signal on the KalbTG array
